Reference: patent publication US20260234255A1 (Genmab, published 2026)

How the values were obtained:
human CD30 [1] = molecular target: T1, human CD30 (human, UniProt P28908 19-595); test: flow cytometry, Expi293F cells transfected with human CD30
T1 construct: The same molecule is used for CD30 on HL/ALCL/NHL cell lines; also called huCD30; TNFRSF8
T1 sequence: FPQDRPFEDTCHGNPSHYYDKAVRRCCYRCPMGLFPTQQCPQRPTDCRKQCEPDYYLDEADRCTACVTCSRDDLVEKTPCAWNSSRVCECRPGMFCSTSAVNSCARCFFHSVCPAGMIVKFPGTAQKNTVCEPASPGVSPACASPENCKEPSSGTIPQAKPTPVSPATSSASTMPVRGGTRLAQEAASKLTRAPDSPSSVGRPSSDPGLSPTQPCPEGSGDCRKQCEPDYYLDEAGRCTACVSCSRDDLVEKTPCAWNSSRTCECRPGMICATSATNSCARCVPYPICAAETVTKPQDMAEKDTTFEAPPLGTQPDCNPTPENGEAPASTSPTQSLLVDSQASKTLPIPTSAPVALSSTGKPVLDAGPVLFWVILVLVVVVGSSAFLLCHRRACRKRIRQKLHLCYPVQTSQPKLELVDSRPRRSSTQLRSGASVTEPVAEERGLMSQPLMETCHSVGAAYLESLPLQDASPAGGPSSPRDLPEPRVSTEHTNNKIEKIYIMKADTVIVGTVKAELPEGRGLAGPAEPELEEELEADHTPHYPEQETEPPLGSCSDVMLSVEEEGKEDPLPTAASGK
Experimental: Data are presented as mean fluorescence intensity (MFI) values as determined by flow cytometry of two technical replicates. […] Data are presented as mean fluorescence intensity (MFI) values as determined by flow cytometry of one representative experiment.
Binding of bispecific CD3×CD30 antibodies and monospecific, bivalent CD30 antibodies to the plasma membrane of Expi293 cells transiently transfected with human CD30 or cynomolgus monkey CD30 was analyzed by flow cytometry.

[2] = molecular target: T2, cynomolgus monkey (Macaca fascicularis) CD30 (cynomolgus monkey, UniProt P28908 19-595 (human entry)); test: flow cytometry, Expi293F cells transfected with cynomolgus monkey CD30 (mfCD30)
T2 construct: also called mfCD30
T2 chain: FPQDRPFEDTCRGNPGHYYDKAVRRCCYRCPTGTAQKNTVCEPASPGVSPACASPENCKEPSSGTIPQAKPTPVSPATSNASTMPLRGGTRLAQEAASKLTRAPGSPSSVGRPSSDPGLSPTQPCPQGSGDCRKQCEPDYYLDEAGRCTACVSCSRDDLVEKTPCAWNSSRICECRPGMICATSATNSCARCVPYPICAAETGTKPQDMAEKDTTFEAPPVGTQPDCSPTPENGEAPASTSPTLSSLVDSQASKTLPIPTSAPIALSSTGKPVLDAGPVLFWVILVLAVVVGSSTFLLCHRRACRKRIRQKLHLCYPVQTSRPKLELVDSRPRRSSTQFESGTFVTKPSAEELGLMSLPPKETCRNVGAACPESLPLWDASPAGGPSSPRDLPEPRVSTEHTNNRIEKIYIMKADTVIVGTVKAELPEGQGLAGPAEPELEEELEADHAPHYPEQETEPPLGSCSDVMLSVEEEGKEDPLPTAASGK
Experimental: Cells (3×10⁴ cells/well) were incubated in polystyrene 96-well round-bottom plates (Greiner bio-one, cat. no. 650180) with serial dilutions of antibodies (ranging from 0.005 to 10 μg/mL in 3-fold dilution steps) in 100 μL staining buffer at 4° C. for 30 min. Experiments were performed in technical duplicate. After washing twice in staining buffer, cells were incubated in 50 μL secondary antibody at 4° C. for 30 min. As a secondary antibody, R-PE-conjugated goat-anti-human IgG (Jackson ImmunoResearch, UK; cat. no. 109⁻¹¹⁶-098) diluted 1:400 in staining buffer was used. Cells were washed twice in staining buffer, resuspended in 30 μL staining buffer containing 0.4% EDTA and analyzed on an iQue Screener (Intellicyt Corporation, USA). Binding curves were analyzed using non-linear regression (sigmoidal dose-response with variable slope) using GraphPad Prism V9.0.0 software (GraphPad Software, San Diego, CA, USA).

human CD30 [3] = molecular target: T1, human CD30; test: flow cytometry, HH cells
Experimental: Cells (3×10⁴ cells/well) were incubated in polystyrene 96-well round-bottom plates (Greiner bio-one, cat. no. 650180) with serial dilutions of antibodies (range 0.0046 to 10 μg/mL in 3-fold dilution steps) in 50 μL staining buffer at 4° C. for 30 min. After washing twice in staining buffer, cells were incubated with 50 μL secondary antibody at 4° C. for 30 min. […] Next, cells were washed twice in staining buffer, resuspended in 100 μL staining buffer supplemented with TO-PRO-3 iodide (Thermo Fisher Scientific; cat. no. T3605; 1:8000 dilution) and analyzed on a FACSCelesta flow cytometer (BD Biosciences, USA). Live cells were gated based on FSC/SSC and absence of TOPRO-3 staining. Binding curves were analyzed by non-linear regression of log-transformed data (sigmoidal dose-response with variable slope, four parameters) using GraphPad Prism V7.02 software (GraphPad Software, San Diego, CA, USA).

human CD30 [4] = molecular target: T1, human CD30; test: flow cytometry, L-82 cells
human CD30 [5] = molecular target: T1, human CD30; test: flow cytometry, L-540 cells
human CD30 [6] = molecular target: T1, human CD30; test: flow cytometry, KM-H2 cells
human CD30 [7] = molecular target: T1, human CD30; test: flow cytometry, DL-40 cells
human CD30 [8] = molecular target: T1, human CD30; test: flow cytometry, L-1236 cells
human CD30 [9] = molecular target: T1, human CD30; test: flow cytometry, SUP-M2 cells
human CD30 [10] = molecular target: T1, human CD30; test: flow cytometry, SR-786 cells
human CD30 [11] = molecular target: T1, human CD30; test: flow cytometry, JVM-2 cells
human CD30 [12] = molecular target: T1, human CD30; test: flow cytometry, NCEB-1 cells

B1: bsG1-huCD3-H101G-FEALxCD30-MDX060-FEAR (bispecific antibody, human IgG1, kappa, lambda)
heavy 1: not shown
light 1: not shown
heavy 2: QVQLQQWGAGLLKPSETLSLTCAVYGGSFSAYYWSWIRQPPGKGLEWIGDINHGGGTNYNPSLKSRVTISVDTSKNQFSLKLNSVTAADTAVYYCASLTAYWGQGSLVTVSSASTKGPSVFPLAPSSKSTSGGTAALGCLVKDYFPEPVTVSWNSGALTSGVHTFPAVLQSSGLYSLSSVVTVPSSSLGTQTYICNVNHKPSNTKVDKRVEPKSCDKTHTCPPCPAPEFEGGPSVFLFPPKPKDTLMISRTPEVTCVVVAVSHEDPEVKFNWYVDGVEVHNAKTKPREEQYNSTYRVVSVLTVLHQDWLNGKEYKCKVSNKALPAPIEKTISKAKGQPREPQVYTLPPSREEMTKNQVSLTCLVKGFYPSDIAVEWESNGQPENNYKTTPPVLDSDGSFFLYSRLTVDKSRWQQGNVFSCSVMHEALHNHYTQKSLSLSPG
light 2: DIQMTQSPTSLSASVGDRVTITCRASQGISSWLTWYQQKPEKAPKSLIYAASSLQSGVPSRFSGSGSGTDFTLTISSLQPEDFATYYCQQYDSYPITFGQGTRLEIKRTVAAPSVFIFPPSDEQLKSGTASVVCLLNNFYPREAKVQWKVDNALQSGNSQESVTEQDSKDSTYSLSSTLTLSKADYEKHKVYACEVTHQGLSSPVTKSFNRGEC
notes: Variant of m7 whose CD3 arm carries H101G
binding result (human CD30 [1]): binds
binding result [2]: binds

B2: bsG1-b12-FEALxCD30-MDX060-FERR (bispecific antibody, human IgG1, kappa)
heavy 1: QVQLVQSGAEVKKPGASVKVSCQASGYRFSNFVIHWVRQAPGQRFEWMGWINPYNGNKEFSAKFQDRVTFTADTSANTAYMELRSLRSADTAVYYCARVGPYSWDDSPQDNYYMDVWGKGTTVIVSSASTKGPSVFPLAPSSKSTSGGTAALGCLVKDYFPEPVTVSWNSGALTSGVHTFPAVLQSSGLYSLSSVVTVPSSSLGTQTYICNVNHKPSNTKVDKRVEPKSCDKTHTCPPCPAPEFEGGPSVFLFPPKPKDTLMISRTPEVTCVVVAVSHEDPEVKFNWYVDGVEVHNAKTKPREEQYNSTYRVVSVLTVLHQDWLNGKEYKCKVSNKALPAPIEKTISKAKGQPREPQVYTLPPSREEMTKNQVSLTCLVKGFYPSDIAVEWESNGQPENNYKTTPPVLDSDGSFLLYSKLTVDKSRWQQGNVFSCSVMHEALHNHYTQKSLSLSPG
light 1: EIVLTQSPGTLSLSPGERATFSCRSSHSIRSRRVAWYQHKPGQAPRLVIHGVSNRASGISDRFSGSGSGTDFTLTITRVEPEDFALYYCQVYGASSYTFGQGTKLERKRTVAAPSVFIFPPSDEQLKSGTASVVCLLNNFYPREAKVQWKVDNALQSGNSQESVTEQDSKDSTYSLSSTLTLSKADYEKHKVYACEVTHQGLSSPVTKSFNRGEC
heavy 2: QVQLQQWGAGLLKPSETLSLTCAVYGGSFSAYYWSWIRQPPGKGLEWIGDINHGGGTNYNPSLKSRVTISVDTSKNQFSLKLNSVTAADTAVYYCASLTAYWGQGSLVTVSSASTKGPSVFPLAPSSKSTSGGTAALGCLVKDYFPEPVTVSWNSGALTSGVHTFPAVLQSSGLYSLSSVVTVPSSSLGTQTYICNVNHKPSNTKVDKRVEPKSCDKTHTCPPCPAPEFERGPSVFLFPPKPKDTLMISRTPEVTCVVVDVSHEDPEVKFNWYVDGVEVHNAKTKPREEQYNSTYRVVSVLTVLHQDWLNGKEYKCKVSNKALPAPIEKTISKAKGQPREPQVYTLPPSREEMTKNQVSLTCLVKGFYPSDIAVEWESNGQPENNYKTTPPVLDSDGSFFLYSRLTVDKSRWQQGNVFSCSVMHEALHNHYTQKSLSLSPG
light 2: DIQMTQSPTSLSASVGDRVTITCRASQGISSWLTWYQQKPEKAPKSLIYAASSLQSGVPSRFSGSGSGTDFTLTISSLQPEDFATYYCQQYDSYPITFGQGTRLEIKRTVAAPSVFIFPPSDEQLKSGTASVVCLLNNFYPREAKVQWKVDNALQSGNSQESVTEQDSKDSTYSLSSTLTLSKADYEKHKVYACEVTHQGLSSPVTKSFNRGEC
notes: Monovalent CD30 control antibody
EC50 (read off the curve) (human CD30 [3]): ~0.4 µg/mL
EC50 (read off the curve) (human CD30 [4]): ~0.2 µg/mL
EC50 (read off the curve) (human CD30 [5]): ~0.5 µg/mL
EC50 (read off the curve) (human CD30 [6]): ~0.1 µg/mL
EC50 (read off the curve) (human CD30 [7]): ~0.3 µg/mL
EC50 (read off the curve) (human CD30 [8]): ~0.2 µg/mL
EC50 (read off the curve) (human CD30 [9]): ~0.2 µg/mL
EC50 (read off the curve) (human CD30 [10]): ~0.3 µg/mL
EC50 (read off the curve) (human CD30 [11]): ~0.1 µg/mL
EC50 (read off the curve) (human CD30 [12]): ~0.2 µg/mL
